In patent US20260218128A1 (CARSGEN LIFE SCIENCES, published 2026):
Positions count from the first letter of the chain named.

T1: mouse MOG overexpressed on cells (293T-mMOG, K562-mMOG) (mouse, UniProt Q61885 29-246)
T1 construct: whole, on cells
T1 sequence (looked up): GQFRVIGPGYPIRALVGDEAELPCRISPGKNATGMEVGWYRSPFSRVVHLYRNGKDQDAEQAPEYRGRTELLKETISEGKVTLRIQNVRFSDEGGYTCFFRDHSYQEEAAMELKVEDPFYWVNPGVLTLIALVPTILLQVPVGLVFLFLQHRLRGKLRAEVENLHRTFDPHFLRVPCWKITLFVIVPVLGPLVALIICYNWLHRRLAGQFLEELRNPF

T2: human MOG overexpressed on cells (293T-hMOG, K562-hMOG) (human, UniProt Q16653 30-247)
T2 construct: Cells overexpressing human MOG built by conventional techniques; also called K562-huMOG
T2 chain: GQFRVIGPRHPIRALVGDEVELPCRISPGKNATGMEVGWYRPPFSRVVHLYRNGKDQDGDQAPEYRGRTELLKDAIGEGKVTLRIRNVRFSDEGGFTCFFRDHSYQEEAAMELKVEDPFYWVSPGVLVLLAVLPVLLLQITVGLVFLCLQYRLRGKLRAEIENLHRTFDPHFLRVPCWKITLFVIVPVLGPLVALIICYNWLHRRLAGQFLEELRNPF

T3: recombinant hMOG_his (human, UniProt Q16653 30-154, limits assumed)
T3 construct: also called human MOG antigen; not shown: His tag
T3 sequence: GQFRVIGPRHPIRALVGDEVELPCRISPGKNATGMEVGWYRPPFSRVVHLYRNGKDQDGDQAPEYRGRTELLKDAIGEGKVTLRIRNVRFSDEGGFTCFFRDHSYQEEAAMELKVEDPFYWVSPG

B1: A7 (Fab form) (Fab, V domains shown)
VH: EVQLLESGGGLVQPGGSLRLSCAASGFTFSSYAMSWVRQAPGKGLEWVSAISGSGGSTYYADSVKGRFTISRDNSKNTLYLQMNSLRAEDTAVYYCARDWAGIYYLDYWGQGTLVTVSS
VL: DIQMTQSPSTLSASVGDRVTITCRASQSISSWLAWYQQKPGKAPKLLIYDASSLESGVPSRFSGSGSGTEFTLTISSLQPDDFATYYCQQSDTYPRTFGQGTKVEIKR
notes: Fully human anti-MOG clone tested in Fab form; also called antibody A7
B2: A5 (Fab form) (Fab, V domains shown)
VH: QVQLVQSGAEVKKPGSSVKVSCKASGGTFSSYAISWVRQAPGQGLEWMGGIIPIFGTANYAQKFQGRVTITADKSTSTAYMELSSLRSEDTAVYYCARAPYSPTYYPFDYWGQGTTVTVSS
VL: B1 VL with S91Y, D92S, T93M, Y94D, P95H, R96L
notes: Fully human anti-MOG clone tested in Fab form; also called antibody A5
B3: A4 (Fab form) (Fab, V domains shown)
VH: QVQLVQSGAEVKKPGSSVKVSCKASGGTFSSYAISWVRQAPGQGLEWMGGIIPIFGTANYAQKFQGRVTITADKSTSTAYMELSSLRSEDTAVYYCAREWYWPDNPFDYWGQGTTVTVSS
VL: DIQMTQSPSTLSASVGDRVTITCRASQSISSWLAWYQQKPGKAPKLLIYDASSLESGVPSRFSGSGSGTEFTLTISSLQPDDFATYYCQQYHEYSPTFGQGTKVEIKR
notes: Fully human anti-MOG clone tested in Fab form; also called antibody A4
B4: A1 (Fab form) (Fab, V domains shown)
VH: QVQLVQSGAEVKKPGSSVKVSCKASGGTFSSYAISWVRQAPGQGLEWMGGIIPIFGTANYAQKFQGRVTITADKSTSTAYMELSSLRSEDTAVYYCARGYFSEEAMDYWGQGTTVTVSS
VL: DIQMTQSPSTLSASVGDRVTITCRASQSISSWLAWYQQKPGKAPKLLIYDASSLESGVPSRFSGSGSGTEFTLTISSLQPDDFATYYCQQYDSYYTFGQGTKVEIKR
notes: Fully human anti-MOG clone tested in Fab form; also called antibody A1
B5: A3 (Fab form) (Fab, V domains shown)
VH: B3 VH with E99G, W102F, P103F, N105A, P106G
VL: B1 VL with S91Y, T93S, Y94P, P95L, R96L
notes: Fully human anti-MOG clone tested in Fab form; also called antibody A3
B6: A9 (Fab form) (Fab, V domains shown)
VH: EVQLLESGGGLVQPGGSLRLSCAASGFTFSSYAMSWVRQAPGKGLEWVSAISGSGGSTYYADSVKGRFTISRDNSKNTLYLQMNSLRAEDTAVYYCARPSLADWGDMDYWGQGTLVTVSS
VL: DIQMTQSPSTLSASVGDRVTITCRASQSISSWLAWYQQKPGKAPKLLIYDASSLESGVPSRFSGSGSGTEFTLTISSLQPDDFATYYCQQYDQYWTFGQGTKVEIKR
notes: also called antibody A9
B7: A12 (Fab form) (Fab, V domains shown)
VH: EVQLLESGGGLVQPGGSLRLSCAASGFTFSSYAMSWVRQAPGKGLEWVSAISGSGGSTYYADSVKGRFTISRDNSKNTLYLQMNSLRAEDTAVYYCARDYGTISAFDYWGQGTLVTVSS
VL: B6 VL with D92G, Q93I, Y94P
notes: Fully human anti-MOG clone tested in Fab form; also called antibody A12
B8: A11 (Fab form) (Fab, V domains shown)
VH: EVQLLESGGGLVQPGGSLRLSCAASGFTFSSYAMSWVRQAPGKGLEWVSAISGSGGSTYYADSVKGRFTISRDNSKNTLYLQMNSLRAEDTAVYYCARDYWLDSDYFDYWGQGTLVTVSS
VL: B6 VL with Y91V, D92Y, Q93I, W95S
notes: Fully human anti-MOG clone tested in Fab form; also called antibody A11; All [sic]

Each binder was assayed against T1, mouse MOG overexpressed on cells … (assay: flow cytometry, Fab 5 µg/mL on 293T-mMOG cells, Anti-Fc-FITC secondary, MFI; controls 293T cells and NA (no antibody)).

binding result | Binder
binds | B1
binds | B2
binds | B3

Biological target: T2, human MOG overexpressed on cells …
Experiment: flow cytometry, Fab 5 µg/mL on 293T-hMOG cells, Anti-Fc-FITC secondary, MFI; controls 293T cells and NA (no antibody)

binding result | Binder
binds | B4
binds | B5
binds | B1
binds | B2
binds | B3
binds | B6
binds | B7
binds | B8

Each binder was assayed against T3, recombinant hMOG_his (assay: SPR, Biacore T200; MOG_His amine-coupled on CM5, Fab as analyte, 1:1 Langmuir fit).

Kd [nM] | koff [s⁻¹] | kon [M⁻¹ s⁻¹] | Binder
7.26 | 0.00193 | 266000 | B4
5.92 | 0.00139 | 234000 | B5
25.6 | 0.00166 | 65000 | B1
27.6 | 0.00278 | 101000 | B2
24 | 0.000516 | 21500 | B3
2.28 | 0.000287 | 125000 | B6
6.83 | 0.00103 | 151000 | B7
17.6 | 0.00432 | 246000 | B8

What follows are binders tested against T1, mouse MOG overexpressed on cells … (assay: flow cytometry, Fab on 293T-mMOG cells, Anti-Fc-FITC secondary, MFI).

binding result | Binder
no binding | B4
no binding | B5
no binding | B6
no binding | B7
no binding | B8
